Experimental data taken from article PMC12290929, “Analytical and Structural Evaluation of Recombinant Human Serum Albumin and Fragment F8 for Aptamer-Based Urinary Biomarker Detection”.

Experiments:
[1] = biological target: rF8 (HSA fragment F8) (Homo sapiens, UniProt P02768); assay: graphene oxide fluorescence recovery (Cy5 aptasensor); GO-quenched aptamer; protein 0.37-1500 ug/mL; sigmoidal, R2 > 0.99; response comparable to full-length rHSA; PBS pH 7.4, graphene oxide (15 uL of 5 mg/mL) + Cy5-H8 (15 uL of 5 uM) preincubated 5 min at room temperature, 200 uL final volume, 30 min with protein in the dark, ex 630/em 670 nm; conditions: protein: recombinant; tags: His-tag; label: 5'-Cy5
[2] = biological target: rHSA (E. coli) (Homo sapiens, UniProt P02768 25-609); assay: graphene oxide fluorescence recovery (Cy5 aptasensor); GO-quenched aptamer; protein 0.37-1500 ug/mL; sigmoidal, R2 > 0.99; PBS pH 7.4, graphene oxide (15 uL of 5 mg/mL) + Cy5-H8 (15 uL of 5 uM) preincubated 5 min at room temperature, 200 uL final volume, 30 min with protein in the dark, ex 630/em 670 nm; conditions: protein: recombinant; tags: His-tag; label: 5'-Cy5
[3] = biological target: rHSA (rice) (Homo sapiens, UniProt P02768 25-609); assay: graphene oxide fluorescence recovery (Cy5 aptasensor); GO-quenched aptamer; protein 0.37-1500 ug/mL; sigmoidal, R2 > 0.99; lower fluorescence than E. coli proteins; PBS pH 7.4, graphene oxide (15 uL of 5 mg/mL) + Cy5-H8 (15 uL of 5 uM) preincubated 5 min at room temperature, 200 uL final volume, 30 min with protein in the dark, ex 630/em 670 nm; conditions: protein: commercial; label: 5'-Cy5

Measured: binding result

Sequence of rHSA (rice) (P02768 25-609): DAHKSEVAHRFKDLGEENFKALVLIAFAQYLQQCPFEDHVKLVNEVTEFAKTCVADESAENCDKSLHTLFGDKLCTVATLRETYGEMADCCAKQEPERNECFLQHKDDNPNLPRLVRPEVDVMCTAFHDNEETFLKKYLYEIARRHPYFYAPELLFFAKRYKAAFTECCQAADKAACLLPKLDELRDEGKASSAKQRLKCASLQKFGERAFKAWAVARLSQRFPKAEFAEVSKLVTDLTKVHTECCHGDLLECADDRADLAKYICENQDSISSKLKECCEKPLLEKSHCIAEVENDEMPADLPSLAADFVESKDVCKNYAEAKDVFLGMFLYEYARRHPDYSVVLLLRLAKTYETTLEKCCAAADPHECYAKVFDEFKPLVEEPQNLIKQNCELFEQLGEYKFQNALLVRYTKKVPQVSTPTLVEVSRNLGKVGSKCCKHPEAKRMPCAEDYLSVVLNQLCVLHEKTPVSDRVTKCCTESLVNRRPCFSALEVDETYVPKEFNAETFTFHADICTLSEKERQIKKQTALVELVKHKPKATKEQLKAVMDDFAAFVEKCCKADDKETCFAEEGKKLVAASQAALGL
Sequence of rHSA (E. coli) (P02768 25-609): as above
Sequence of rF8 (HSA fragment F8) (P02768 520-609): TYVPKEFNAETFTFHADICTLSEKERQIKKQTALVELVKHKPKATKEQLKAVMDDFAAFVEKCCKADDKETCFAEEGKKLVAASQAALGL

B1: H8 aptamer (ssDNA)
DNA: ATACCAGCTTATTCAATTCCCCCGGCTTTGGTTTAGAGGTAGTTGCTCATTACTTGTACGCTCCGGATGAGATAGTAAGTGCAATCT
binds: all assays above
